Experimental data reported in patent US8440413B2, “Method of screening for a substance that strengthens a bond between thioredoxin and macrophage migration inhibition factor” (Redox Bioscience, Inc., priority 2006, dated 2013).
Substitutions are numbered along the chain they refer to. Where two headings read alike, the source gives them in different places. Values belong to the molecule of their own block, whether it stands above or below them.

Experiments:
[1] = target: T1, bond between rTRX and rMIF (Homo sapiens, UniProt P10599); test: Screening by molecular interaction analysis (Biacore, SPR) for substances that strengthen the bond between TRX and MIF, Example 7; format: binding; settings: analyte: rTRX 5 μM mixed with test substance 500 μM (Prostaglandin I2 also 5 μM); compared with rTRX only (FIGS. 7 to 11)
T1 construct: His tag; made in house; host or cells: Escherichia coli
T1 sequence (P10599 1-105): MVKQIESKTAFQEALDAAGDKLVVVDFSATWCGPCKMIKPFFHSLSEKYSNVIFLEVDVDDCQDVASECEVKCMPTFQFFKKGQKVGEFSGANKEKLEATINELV
Procedure: For several test substances, it was confirmed with a molecular interaction analysis whether they strengthened the bond between TRX and MIF or not. rMIF was immobilized in a CM5 sensor chip as a ligand. The ligand was adjusted to have the rMIF concentration of less or equal to 200 nM by using running buffer, 10 mM HEPES (pH7.4), 150 mM NaCl, 3 mM EDTA and 0.005% Tween 20. […] In each analyte, the concentration of rTRX was 5 μM and the concentration of the test substance was 500 μM. For Prostaglandin I2, the analyte having its concentration of 5 μM was also analyzed.

[2] = target: T2, MIF (Homo sapiens, UniProt P14174); test: Immunoprecipitation / Western blotting of the bond between TRX and MIF in cells; format: cell-based; settings: ATL2 cells and HL60 cells; anti MIF antibody immunoprecipitation, anti TRX Western blotting (FIG. 1)
T2 construct: endogenous in cells; host or cells: ATL2 cells (concentrated culture supernatant)
T2 sequence (P14174 1-115): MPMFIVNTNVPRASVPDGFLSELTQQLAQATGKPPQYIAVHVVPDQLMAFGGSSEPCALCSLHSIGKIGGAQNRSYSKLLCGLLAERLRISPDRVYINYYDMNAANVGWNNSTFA
Procedure: The bonds between TRX and MIF in ATL2 cells and HL60 cells were confirmed with an immunoprecipitation method (to be described in detail below).
The cells were cultured with RPMI 1640 (SIGMA Inc.) medium containing 10% FCS, 100 U/ml penicillin and 100 μg/ml streptomycin in a 175 cm^2 flask.
1×10^7˜8/cell of the cells were collected and centrifugated at 1,000 rpm and 4° C. for 15 minutes. The obtained precipitation was dissolved with lysis buffer and left on the ice for 30 minutes.
The solution was centrifugated at 1,000 rpm and 4° C. for 15 minutes. The obtained supernatant was used for the immunoprecipitation experiment. The concentration of the protein was measured with DC protein assay kit (BIO RAD Inc.).
20 μl Protein G Sepharose and 500 μg of the cell solution were added to a microtube, and phosphate buffer was used to adjust the amount to 1 ml. The obtained solution was reacted at 4° C. for 3 hours with a small rotary incubator. The cell solution was centrifugated at 15,000 rpm and 4° C. for 2 minutes. The obtained supernatant was added to a new microtube, and 20 μl Protein G Sepharose and 4 μg/ml anti MIF antibody were also added thereto.
(§1) For a control, anti Rabbit antibody was used instead of the anti MIF antibody.
The reaction was carried out with a small rotary incubator at 4° C. for overnight. The reaction solution was centrifugated at 15,000 rpm and 4° C. for 2 minutes. […]

[3] = target: T2, MIF; test: Immunoprecipitation / Western blotting of the bond between TRX and MIF outside ATL2 cells (culture supernatant); format: binding; settings: anti MIF antibody immunoprecipitation, anti TRX Western blotting (FIG. 2)
Procedure: The bond between TRX and MIF outside ATL2 cells was confirmed with an immunoprecipitation method.
1×10^5/cell of the ATL2 cells were cultured with RPMI 1640 (SIGMA Inc.) medium containing 100 U/ml penicillin and 100 μg/ml streptomycin in a 175 cm^2 flask for 3 days. Then, the medium was collected and centrifugated at 10,000 rpm and 4° C. for 15 minutes. Then, FCS was added to the obtained supernatant to adjust the final concentration to 10%, and the solution was concentrated with Amicon ultra-4. The obtained concentrated-solution was used for the immunoprecipitation experiment. 20 μl Protein G Sepharose and 30 μl of the culture supernatant were added to a microtube, and phosphate buffer was used to adjust the amount to 1 ml. The obtained solution was reacted at 4° C. for 3 hours with a small rotary incubator. The cell solution was centrifugated at 15,000 rpm and 4° C. for 2 minutes. The obtained supernatant was added to a new microtube, and 20 μl Protein G Sepharose and 4 μg/ml of the anti MIF antibody were also added thereto.
as §1
The reaction was carried out with a small rotary incubator at 4° C. for overnight. The reaction solution was centrifugated at 15,000 rpm and 4° C. for 2 minutes. The precipitation was washed with washing buffer (50 mM Tris-HCl (pH7.5), 150 mM NaCl, 0.1% NP40). […]

[4] = tested on: ATL2 cells; test: Inhibition of the cell internalization of MIF into ATL2 cells (Western blotting, densitometer); format: cell-based, human; settings: rTRX 0 to 250 μg/ml, 25 μg/ml rMIF, 24 hours (FIG. 3)
Procedure: MIF is internalized (incorporated) into cells by the autocrine or paracrine action to induce the production of inflammatory cytokine TNF-alpha(α) or IL-1. Thus, the effects of TRX on the cell internalization of MIF were examined to clarify the inflammation response control mechanism.
ATL2 cells were cultured with RPMI 1640 medium containing 10% FCS, 100 U/ml penicillin and 100 μg/ml streptomycin in a 75 cm^2 flask.
1×10^6/cell of ATL2 cells were added to a 24 well plate. rTRX having the final concentration of 0 to 250 μg/ml and 25 μg/ml rMIF were also added thereto, and cultured under the condition of […] at 37° C. for 24 hours.
After cells were collected, the precipitation was mixed with SDS-PAGE sample buffer, and then electrophoresed on a 15% SDS-PAGE gel. After the electrocataphoresis, a Western blotting was performed to detect MIF internalized in the cells with anti His-tagged antibody. The change of the band by the Western blotting was analyzed with a densitometer.

[5] = tested on: RAW 264.7 cells; test: Inhibition of MIF activity measured as TNF-alpha production in RAW 264.7 cells (ELISA); format: cell-based, mouse; settings: MIF 10 ng/ml, 0 to 500 ng/ml TRX, LPS 100 ng/ml (FIG. 4)
Procedure: TRX's inhibition of MIF activity was confirmed by measuring a concentration of inflammatory cytokine TNF-α (to be described in detail below).
RAW 264.7 cells were cultured with RPMI 1640 medium containing 10% FCS, 100 U/ml penicillin and 100 μg/ml streptomycin in a 75 cm^2 flask.
RAW 264.7 cells were added to a 24 well plate (1×10^6/cell). MIF having a final concentration of 10 ng/ml and 0 to 500 ng/ml TRX were also added thereto, and left under the condition of 5% CO2 at 37° C. for 4 hours.
Further, 100 ng/ml of LPS was added to the plate (described as LPS (+)), and the plate was left under the condition of 5% CO2 at 37° C. for 4 hours. Then, the medium was collected.
Amount of the generated TNF-alpha (α) was measured with Duo Set ELISA Development system mouse TNF-α kit.
The measuring method was based on the protocol attached to the kit.

[6] = target: T3, rMIF (Homo sapiens, UniProt P14174); test: Molecular interaction analysis (Biacore, SPR) of the bond between rTRX and rMIF, Example 5; format: binding; settings: rMIF immobilized on CM5 sensor chip; rTRX 2 to 12 μM (FIG. 5)
T3 construct: His tag; made in house; host or cells: Escherichia coli
T3 sequence (P14174 1-115): T2 sequence (P14174 1-115)
Procedure: The bond between TRX and MIF was confirmed with a molecular interaction analysis (Biacore) (hereinafter, referred to as “molecular interaction analysis”) utilizing surface plasmon resonance (SPR) phenomenon.
rMIF was immobilized in a CM5 sensor chip as a ligand. The ligand was adjusted to include MIF less or equal to 200 nM by using running buffer, 10 mM HEPES (pH7.4), 150 mM NaCl, 3 mM EDTA and 0.005% Tween 20.
Then, rTRX was used as an analyte to analyze the interaction between rTRX and rMIF. The concentration of rTRX was changed to 2 μM, 4 μM, 6 μM, 8 μM, 10 μM and 12 μM for the analysis.

[7] = target: T3, rMIF; test: Molecular interaction analysis (Biacore, SPR) of rTRX variants and rMIF in oxidation and reduction states, Example 6; format: binding; settings: for change of the dissociation constant value between oxidation state and reduction state: oxidation state versus reduction state; for Kd: rMIF immobilized on CM5 sensor chip, read-out: KD (dissociation constant value)
Procedure: It was confirmed with a molecular interaction analysis whether the cysteine residues at 32 and 35 positions (the active site of TRX) affect the bond between TRX and MIF or not.
rMIF was immobilized in a CM5 sensor chip as a ligand, wherein the concentration of rMIF was adjusted to less than or equal to 200 nM.
Then, rWT TRX, rDM TRX and rC35S TRX were used as analytes to analyze the interaction between these rTRX and rMIF in both oxidation and reduction states, respectively.
In the oxidation state, running buffer, 10 mM HEPES (pH7.4), 150 mM NaCl, 3 mM EDTA and 0.005% Tween 20 were used to adjust the ligand. In the reduction state, 1M DTT was used in addition to the running buffer, 10 mM HEPES (pH7.4), 150 mM NaCl, 3 mM EDTA and 0.005% Tween 20 to adjust the ligand.
Tables 1 and 2 show the dissociation constant value (KD value) calculated from FIG. 6.

[8] = reduction state (DTT added to running buffer)

- bond between TRX and MIF in cells [2]: bonds directly with MIF
- bond between TRX and MIF outside cells [3]: bonds directly with MIF
- bond between rTRX and rMIF (surface plasmon resonance) [6]: concentration-dependent
- direct bond with rMIF ([7]; FIG. 6, Tables 1 and 2): bonded directly with rMIF
- Kd ([7]; oxidation state): 25.3 µM
- Kd [7, 8]: 29.7 µM
B1: rTRX: Recombinant thioredoxin; His-tagged, expressed in Escherichia coli (Examples 5-7); from Ajinomoto in Examples 3-4 (protein)
chain: T1 sequence (P10599 1-105)
modifications: left off: small tags and cut ends
- internalization of MIF into cells [4]: inhibits the internalization of MIF into the ATL2 cells
- inhibition of rMIF activity [5]: inhibits the activity of rMIF depending on the concentration of rTRX
- production of MIF-derived TNF-alpha [5]: inhibits the production of MIF-derived TNF-alpha
- change of the dissociation constant value between oxidation state and reduction state [7]: almost no changes in the dissociation constant values

- direct bond with rMIF ([7]; FIG. 6, Tables 1 and 2): bonded directly with rMIF
- Kd ([7]; oxidation state): 11.9 µM
- Kd [7, 8]: 16.6 µM
B2: rDM TRX: the rTRX of Example 5 in which the cysteine residues at 32 and 35 positions were converted to serine (protein)
chain: T1 sequence (P10599 1-105) with C32S, C35S
modifications: left off: small tags and cut ends
- change of the dissociation constant value between oxidation state and reduction state [7]: almost no changes in the dissociation constant values

More lines, now with the values behind:

Molecule: N[C@@H](CCC(=O)N[C@@H](CSN=O)C(=O)NCC(=O)O)C(=O)O [Nitrosoglutathione]
- effect of the test substance on the bond between rTRX and rMIF [1]: remarkably strengthen the bond between rTRX and rMIF

Molecule: CCCCC[C@H](O)/C=C/[C@@H]1[C@H]2C/C(=C/CCCC(=O)O)O[C@H]2C[C@H]1O [Prostaglandin I2]
- effect of the test substance on the bond between rTRX and rMIF [1]: remarkably strengthen the bond between rTRX and rMIF

B3: rC35S TRX: the rTRX of Example 5 in which the cysteine residue at 35 position was converted to serine (protein)
chain: T1 sequence (P10599 1-105) with C35S
modifications: left off: small tags and cut ends
- direct bond with rMIF ([7]; FIG. 6, Tables 1 and 2): bonded directly with rMIF
- strength of the bond with rMIF compared with the other rTRX ([7]; FIG. 6, Tables 1 and 2): stronger than the bond between rWT TRX or rDM TRX and MIF
- change of the dissociation constant value between oxidation state and reduction state [7]: strong bond with rMIF in the oxidation state
- Kd ([7]; oxidation state): 3.95 µM
